T1: EsCas13d, nuclease-dead (Eubacterium siraeum, UniProt B0MS50, R295A;H300A;R849A;H854A)
T1 sequence: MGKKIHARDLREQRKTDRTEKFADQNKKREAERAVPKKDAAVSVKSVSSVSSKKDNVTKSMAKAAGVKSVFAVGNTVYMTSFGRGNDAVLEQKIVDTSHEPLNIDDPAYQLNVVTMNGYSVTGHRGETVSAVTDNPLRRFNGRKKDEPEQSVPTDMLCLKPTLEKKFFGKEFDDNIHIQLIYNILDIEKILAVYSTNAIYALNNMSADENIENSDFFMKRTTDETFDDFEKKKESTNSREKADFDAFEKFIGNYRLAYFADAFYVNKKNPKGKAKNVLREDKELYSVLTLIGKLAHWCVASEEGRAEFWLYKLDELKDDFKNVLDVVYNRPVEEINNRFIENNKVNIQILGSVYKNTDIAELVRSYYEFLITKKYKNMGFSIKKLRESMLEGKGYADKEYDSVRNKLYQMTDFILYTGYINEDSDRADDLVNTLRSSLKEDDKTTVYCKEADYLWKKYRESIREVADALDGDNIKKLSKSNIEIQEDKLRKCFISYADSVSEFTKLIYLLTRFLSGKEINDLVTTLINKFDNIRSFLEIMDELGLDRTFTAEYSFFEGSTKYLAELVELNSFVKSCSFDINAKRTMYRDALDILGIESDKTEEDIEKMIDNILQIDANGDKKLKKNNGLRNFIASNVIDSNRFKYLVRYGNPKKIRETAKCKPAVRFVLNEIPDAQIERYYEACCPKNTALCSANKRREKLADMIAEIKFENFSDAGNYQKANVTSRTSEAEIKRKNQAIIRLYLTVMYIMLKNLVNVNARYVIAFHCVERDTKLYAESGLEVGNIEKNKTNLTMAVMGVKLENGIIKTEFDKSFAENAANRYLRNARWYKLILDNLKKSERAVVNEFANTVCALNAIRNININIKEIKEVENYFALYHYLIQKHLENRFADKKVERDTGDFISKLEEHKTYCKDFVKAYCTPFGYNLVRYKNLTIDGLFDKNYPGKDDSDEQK


Biological target: T1, EsCas13d, nuclease-dead
Assay: crRNA (strand 1, pre-loaded); Mg2+; 40 mM Tris-HCl pH 7.5, 150 mM NaCl, 6 mM MgCl2, 1 mM DTT, 0.1% Tween-20, 0.2 mg/ml BSA; 25 C; 10 min per concentration, then washed
Details: tags: His6-TwinStrep-SUMO cleaved; N-terminal SNAP kept (SNAP-Surface 488); label: 3' end held by stalled T7 RNA polymerase

Binder | Kd [nM]
target 1 insA 3' of 15,insG 3' of 8 (mixed) RNA 1: CACCCGUGCAAAAAUGCAGGGGUCUAAAACUGAGCGGAUAACCUCUCUAUGG RNA 2: GGGAAUGGAUCCACAUCUACGAAUUCGUACCAUAGAGAAGGUUAUGCCGCUCACCGAGAUCGGAAGAGCACACGU | 7.9 ± 0.4
target 1 G5C,G13A (mixed) RNA 1: CACCCGUGCAAAAAUGCAGGGGUCUAAAACUGAGCGGAUAACCUCUCUAUGG RNA 2: GGGAAUGGAUCCACAUCUACGAAUUCGUACCAUAGAGAAGUUAUCCCCUCACCGAGAUCGGAAGAGCACACGU | 5.8 ± 0.4
target 1 C4G,C21U (mixed) RNA 1: CACCCGUGCAAAAAUGCAGGGGUCUAAAACUGAGCGGAUAACCUCUCUAUGG RNA 2: GGGAAUGGAUCCACAUCUACGAAUUCGUACUAUAGAGAGGUUAUCCGGUCACCGAGAUCGGAAGAGCACACGU | 3.5 ± 0.5
target 1 insC 3' of 19,insU 3' of 7 (mixed) RNA 1: CACCCGUGCAAAAAUGCAGGGGUCUAAAACUGAGCGGAUAACCUCUCUAUGG RNA 2: GGGAAUGGAUCCACAUCUACGAAUUCGUACCAUCAGAGAGGUUAUCUCGCUCACCGAGAUCGGAAGAGCACACGU | 62 ± 7
target 1 insC 3' of 15,insG 3' of 10 (mixed) RNA 1: CACCCGUGCAAAAAUGCAGGGGUCUAAAACUGAGCGGAUAACCUCUCUAUGG RNA 2: GGGAAUGGAUCCACAUCUACGAAUUCGUACCAUAGAGCAGGUUGAUCCGCUCACCGAGAUCGGAAGAGCACACGU | 24.6 ± 1.8
target 1 del14 (mixed) RNA 1: CACCCGUGCAAAAAUGCAGGGGUCUAAAACUGAGCGGAUAACCUCUCUAUGG RNA 2: GGGAAUGGAUCCACAUCUACGAAUUCGUACCAUAGAGGGUUAUCCGCUCACCGAGAUCGGAAGAGCACACGU | 12.1 ± 0.9
target 1 C6U,U8C (mixed) RNA 1: CACCCGUGCAAAAAUGCAGGGGUCUAAAACUGAGCGGAUAACCUCUCUAUGG RNA 2: GGGAAUGGAUCCACAUCUACGAAUUCGUACCAUAGAGAGGUUACCUGCUCACCGAGAUCGGAAGAGCACACGU | 15.6 ± 0.5
target 1 insC 3' of 19,insC 3' of 1 (mixed) RNA 1: CACCCGUGCAAAAAUGCAGGGGUCUAAAACUGAGCGGAUAACCUCUCUAUGG RNA 2: GGGAAUGGAUCCACAUCUACGAAUUCGUACCAUCAGAGAGGUUAUCCGCUCACCCGAGAUCGGAAGAGCACACGU | 26.4 ± 3
target 1 C4A,U19C (mixed) RNA 1: CACCCGUGCAAAAAUGCAGGGGUCUAAAACUGAGCGGAUAACCUCUCUAUGG RNA 2: GGGAAUGGAUCCACAUCUACGAAUUCGUACCACAGAGAGGUUAUCCGAUCACCGAGAUCGGAAGAGCACACGU | ~36
target 1 complement block 8-11 (mixed) RNA 1: CACCCGUGCAAAAAUGCAGGGGUCUAAAACUGAGCGGAUAACCUCUCUAUGG RNA 2: GGGAAUGGAUCCACAUCUACGAAUUCGUACCAUAGAGAGGAAUACCGCUCACCGAGAUCGGAAGAGCACACGU | 18.2 ± 0.8
target 1 insC 3' of 19,insA 3' of 2 (mixed) RNA 1: CACCCGUGCAAAAAUGCAGGGGUCUAAAACUGAGCGGAUAACCUCUCUAUGG RNA 2: GGGAAUGGAUCCACAUCUACGAAUUCGUACCAUCAGAGAGGUUAUCCGCUCAACCGAGAUCGGAAGAGCACACGU | 33.8 ± 3.1
target 1 A18C,C21U (mixed) RNA 1: CACCCGUGCAAAAAUGCAGGGGUCUAAAACUGAGCGGAUAACCUCUCUAUGG RNA 2: GGGAAUGGAUCCACAUCUACGAAUUCGUACUAUCGAGAGGUUAUCCGCUCACCGAGAUCGGAAGAGCACACGU | 7.48 ± 0.31
target 1 G5C,C7U (mixed) RNA 1: CACCCGUGCAAAAAUGCAGGGGUCUAAAACUGAGCGGAUAACCUCUCUAUGG RNA 2: GGGAAUGGAUCCACAUCUACGAAUUCGUACCAUAGAGAGGUUAUUCCCUCACCGAGAUCGGAAGAGCACACGU | 33 ± 6
target 1 G5C,C6A (mixed) RNA 1: CACCCGUGCAAAAAUGCAGGGGUCUAAAACUGAGCGGAUAACCUCUCUAUGG RNA 2: GGGAAUGGAUCCACAUCUACGAAUUCGUACCAUAGAGAGGUUAUCACCUCACCGAGAUCGGAAGAGCACACGU | 11.3 ± 0.8
target 1 C2A,U10C (mixed) RNA 1: CACCCGUGCAAAAAUGCAGGGGUCUAAAACUGAGCGGAUAACCUCUCUAUGG RNA 2: GGGAAUGGAUCCACAUCUACGAAUUCGUACCAUAGAGAGGUCAUCCGCUAACCGAGAUCGGAAGAGCACACGU | 17.8 ± 0.7
target 1 complement block 18-20 (mixed) RNA 1: CACCCGUGCAAAAAUGCAGGGGUCUAAAACUGAGCGGAUAACCUCUCUAUGG RNA 2: GGGAAUGGAUCCACAUCUACGAAUUCGUACCUAUGAGAGGUUAUCCGCUCACCGAGAUCGGAAGAGCACACGU | 57 ± 7
target 1 insC 3' of 19,insG 3' of 1 (mixed) RNA 1: CACCCGUGCAAAAAUGCAGGGGUCUAAAACUGAGCGGAUAACCUCUCUAUGG RNA 2: GGGAAUGGAUCCACAUCUACGAAUUCGUACCAUCAGAGAGGUUAUCCGCUCAGCCGAGAUCGGAAGAGCACACGU | 31 ± 4
target 1 insU 3' of 6,insU 3' of 2 (mixed) RNA 1: CACCCGUGCAAAAAUGCAGGGGUCUAAAACUGAGCGGAUAACCUCUCUAUGG RNA 2: GGGAAUGGAUCCACAUCUACGAAUUCGUACCAUAGAGAGGUUAUCCUGCUCUACCGAGAUCGGAAGAGCACACGU | 17 ± 1.6
target 1 C7G,A9G (mixed) RNA 1: CACCCGUGCAAAAAUGCAGGGGUCUAAAACUGAGCGGAUAACCUCUCUAUGG RNA 2: GGGAAUGGAUCCACAUCUACGAAUUCGUACCAUAGAGAGGUUGUGCGCUCACCGAGAUCGGAAGAGCACACGU | 14.5 ± 0.8
target 1 U19G,C22A (mixed) RNA 1: CACCCGUGCAAAAAUGCAGGGGUCUAAAACUGAGCGGAUAACCUCUCUAUGG RNA 2: GGGAAUGGAUCCACAUCUACGAAUUCGUAACAGAGAGAGGUUAUCCGCUCACCGAGAUCGGAAGAGCACACGU | 54 ± 9
target 1 insA 3' of 19,insA 3' of 12 (mixed) RNA 1: CACCCGUGCAAAAAUGCAGGGGUCUAAAACUGAGCGGAUAACCUCUCUAUGG RNA 2: GGGAAUGGAUCCACAUCUACGAAUUCGUACCAUAAGAGAGGAUUAUCCGCUCACCGAGAUCGGAAGAGCACACGU | 54 ± 5
target 1 insU 3' of 6,insU 3' of 5 (mixed) RNA 1: CACCCGUGCAAAAAUGCAGGGGUCUAAAACUGAGCGGAUAACCUCUCUAUGG RNA 2: GGGAAUGGAUCCACAUCUACGAAUUCGUACCAUAGAGAGGUUAUCCUGUCUCACCGAGAUCGGAAGAGCACACGU | 14.3 ± 0.6
target 1 C2G,U10C (mixed) RNA 1: CACCCGUGCAAAAAUGCAGGGGUCUAAAACUGAGCGGAUAACCUCUCUAUGG RNA 2: GGGAAUGGAUCCACAUCUACGAAUUCGUACCAUAGAGAGGUCAUCCGCUGACCGAGAUCGGAAGAGCACACGU | 5.45 ± 0.29
target 1 C2U,C6G (mixed) RNA 1: CACCCGUGCAAAAAUGCAGGGGUCUAAAACUGAGCGGAUAACCUCUCUAUGG RNA 2: GGGAAUGGAUCCACAUCUACGAAUUCGUACCAUAGAGAGGUUAUCGGCUUACCGAGAUCGGAAGAGCACACGU | 7.9 ± 0.3

From PMC10786891, “Massively parallel profiling of RNA-targeting CRISPR-Cas13d”
